This passage reports binding result and Kd results from patent US20100150918A1 (MICROMET, published 2010).

In experiment [1] the target is T1, 1-27 CD3-EpCAM, human 27 mer (human; cynomolgus).
T1 construct: On transfected cells; also called N-terminal amino acids 1-27 of human CD3 epsilon fused to Flag tagged cynomolgus EpCAM
T1 chain: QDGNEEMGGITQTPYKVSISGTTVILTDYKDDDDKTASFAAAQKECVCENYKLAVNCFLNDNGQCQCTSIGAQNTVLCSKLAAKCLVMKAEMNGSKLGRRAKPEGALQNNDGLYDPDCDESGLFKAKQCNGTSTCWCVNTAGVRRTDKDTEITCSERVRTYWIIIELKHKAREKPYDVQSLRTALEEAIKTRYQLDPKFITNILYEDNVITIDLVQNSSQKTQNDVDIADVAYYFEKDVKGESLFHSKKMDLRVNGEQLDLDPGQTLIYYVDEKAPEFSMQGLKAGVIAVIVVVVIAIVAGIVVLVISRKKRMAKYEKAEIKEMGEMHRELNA
Put plainly: FACS 293-HEK transfectant.

The target in experiment [2] is T2, 1-27 CD3-Fc (human).
T2 construct: also called 27 aa huCD3E; human CD3 epsilon (aa 1-27)-Fc fusion protein
Put plainly: ELISA, captured 1-27 CD3-Fc.

Experiment [3] concerns the target T3, 1-27 CD3-EpCAM, swine 27 mer (domestic swine (Sus scrofa); cynomolgus).
T3 construct: Negative control, on transfected cells; also called 1-27 N-terminal CD3 epsilon of swine fused to cynomolgus EpCAM
T3 chain: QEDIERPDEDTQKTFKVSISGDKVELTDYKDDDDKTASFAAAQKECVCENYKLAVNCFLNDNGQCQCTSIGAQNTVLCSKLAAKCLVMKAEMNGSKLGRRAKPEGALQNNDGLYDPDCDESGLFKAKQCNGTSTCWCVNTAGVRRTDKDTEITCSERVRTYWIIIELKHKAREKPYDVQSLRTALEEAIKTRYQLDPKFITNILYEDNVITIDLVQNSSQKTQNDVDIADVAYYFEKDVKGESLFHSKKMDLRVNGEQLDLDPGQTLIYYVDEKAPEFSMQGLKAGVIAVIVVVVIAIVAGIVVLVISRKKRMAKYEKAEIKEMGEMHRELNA
In words: FACS on 293-HEK transfectants.

Experiment [4] addresses T2, 1-27 CD3-Fc. Put plainly: SPR (Biacore), 1-27 CD3-Fc immobilised.
Experiment [5] addresses T4, human CD3 (native, on HPB-ALL cells or human PBMC) (human, UniProt P07766 23-207).
T4 construct: whole, on cells; Other chains of the CD3/TCR complex are present on the cells; also called human CD3 epsilon; native CD3 on intact T cells
Put plainly: FACS HPB-ALL.

T4 sequence (P07766 23-207): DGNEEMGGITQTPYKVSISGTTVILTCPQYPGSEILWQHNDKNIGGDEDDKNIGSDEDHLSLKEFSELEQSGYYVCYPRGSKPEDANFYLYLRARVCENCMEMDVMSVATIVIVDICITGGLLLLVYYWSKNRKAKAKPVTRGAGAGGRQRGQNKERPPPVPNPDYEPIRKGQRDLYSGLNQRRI

B1: E2M HLP (scFv)
scFv: EVQLLESGGGLVQPGGSLKLSCAASGFTFNGYAMNWVRQAPGKGLEWVARIRSKYNNYATYYADSVKERFTISRDDSKNTAYLQMNNLKTEDTAVYYCVRHRNFGNSYLSWFAYWGQGTLVTVSSGGGGSGGGGSGGGGSELVVTQEPSLTVSPGGTVTLTCRSSTGAVTSGYYPNWVQQKPGQAPRGLIGATDMRPSGTPARFSGSLLGGKAALTLSGVQPEDEAEYYCALWYSNRWVFGGGTKLTVL
notes: crude periplasmic preparation, Flag and His6 tagged
For B1, the binding result in experiment [1] is on record as “binds”; in experiment [2], “binds”; in experiment [3], “no binding”.

B2: A2J HLP (scFv)
scFv: EVQLLESGGGLVQPGGSLKLSCAASGFTFNVYAMNWVRQAPGKGLEWVARIRSKYNNYATYYADSVKKRFTISRDDSKNTAYLQMNNLKTEDTAVYYCVRHGNFGNSYLSWWAYWGQGTLVTVSSGGGGSGGGGSGGGGSELVVTQEPSLTVSPGGTVTLTCRSSTGAVTSGYYPNWVQQKPGQAPRGLIGATDMRPSGTPARFSGSLLGGKAALTLSGVQPEDEAEYYCALWYSNRWVFGGGTKLTVL
notes: as for B1
As to B2, the binding result in experiment [2] is listed as “binds”.

B3: EGFR-21-63 LH × A2J HLP (bispecific antibody)
chain: DIVLTQSPASLPVSLGQRATISCRASQSVSSSTYSYIHWYQQKPGQPPKLLITYASNLESGVPARFSGSGSGTDFTLDIHPVEEDDSSTYYCQHSWEIPFTFGSGTKLEIKGGGGSGGGGSGGGGSQVQLQQSGPDLVKPGASVKMSCKASGHTFTDCVIIWVKQRAGQGLEWIGQIYPGTGRSYYNEIFKGKATLTADKSSNTVHIQLSSLTSEDSAVYFCALSTLIHGTWFSYWGQGTLVTVSSGGGGSEVQLLESGGGLVQPGGSLKLSCAASGFTFNVYAMNWVRQAPGKGLEWVARIRSKYNNYATYYADSVKKRFTISRDDSKNTAYLQMNNLKTEDTAVYYCVRHGNFGNSYLSWWAYWGQGTLVTVSSGGGGSGGGGSGGGGSELVVTQEPSLTVSPGGTVTLTCRSSTGAVTSGYYPNWVQQKPGQAPRGLIGATDMRPSGTPARFSGSLLGGKAALTLSGVQPEDEAEYYCALWYSNRWVFGGGTKLTVL
notes: also called EGFR LH × A2J HLP
As for B3, in experiment [4], binding was put at a Kd of 249 nM.

B4: EGFR-21-63 LH × E2M HLP (bispecific antibody)
chain: DIVLTQSPASLPVSLGQRATISCRASQSVSSSTYSYIHWYQQKPGQPPKLLITYASNLESGVPARFSGSGSGTDFTLDIHPVEEDDSSTYYCQHSWEIPFTFGSGTKLEIKGGGGSGGGGSGGGGSQVQLQQSGPDLVKPGASVKMSCKASGHTFTDCVIIWVKQRAGQGLEWIGQIYPGTGRSYYNEIFKGKATLTADKSSNTVHIQLSSLTSEDSAVYFCALSTLIHGTWFSYWGQGTLVTVSSGGGGSEVQLLESGGGLVQPGGSLKLSCAASGFTFNGYAMNWVRQAPGKGLEWVARIRSKYNNYATYYADSVKERFTISRDDSKNTAYLQMNNLKTEDTAVYYCVRHRNFGNSYLSWFAYWGQGTLVTVSSGGGGSGGGGSGGGGSELVVTQEPSLTVSPGGTVTLTCRSSTGAVTSGYYPNWVQQKPGQAPRGLIGATDMRPSGTPARFSGSLLGGKAALTLSGVQPEDEAEYYCALWYSNRWVFGGGTKLTVL
notes: also called EGFR LH × E2M HLP
B4 gave a Kd in experiment [4] of 2460 nM.

B5: MCSP-G4 HLP × E2M HLP (bispecific antibody)
chain: QVQLVQSGAEVKRPGASMKVSCKASGYTFTNYYIHWVRQAPGQGLEWMGWINPNSGATNYAQKFQGRVTMTRDTSTSTVYMELSSLRSEDTAVYYCAKSWVSWFASWGQGTLVTVSSGGGGSGGGGSGGGGSELVMTQSPDSLAVSLGERATINCKSSQSVLNSSNNRNYLAWYQQKPGQPPKLLIYWASTRESGVPDRFSGSGSGTDFTLTISGLQAEDVAVYYCQQHYSTPFTFGPGTKVDIKSGGGGSEVQLLESGGGLVQPGGSLKLSCAASGFTFNGYAMNWVRQAPGKGLEWVARIRSKYNNYATYYADSVKERFTISRDDSKNTAYLQMNNLKTEDTAVYYCVRHRNFGNSYLSWFAYWGQGTLVTVSSGGGGSGGGGSGGGGSELVVTQEPSLTVSPGGTVTLTCRSSTGAVTSGYYPNWVQQKPGQAPRGLIGATDMRPSGTPARFSGSLLGGKAALTLSGVQPEDEAEYYCALWYSNRWVFGGGTKLTVL
Regarding B5, the binding result in experiment [5] is listed as “binds”.
